2 substances from US8299097B2, “Methods for treating inflammatory disorders” (The Brigham and Women's Hospital, Inc., priority 2008, dated 2012) can be followed below.

In test [1] the target is T1, human CysLT1R (Homo sapiens, UniProt Q9Y271).
T1 construct: expressed in transfected cells
T1 sequence (Q9Y271 1-337): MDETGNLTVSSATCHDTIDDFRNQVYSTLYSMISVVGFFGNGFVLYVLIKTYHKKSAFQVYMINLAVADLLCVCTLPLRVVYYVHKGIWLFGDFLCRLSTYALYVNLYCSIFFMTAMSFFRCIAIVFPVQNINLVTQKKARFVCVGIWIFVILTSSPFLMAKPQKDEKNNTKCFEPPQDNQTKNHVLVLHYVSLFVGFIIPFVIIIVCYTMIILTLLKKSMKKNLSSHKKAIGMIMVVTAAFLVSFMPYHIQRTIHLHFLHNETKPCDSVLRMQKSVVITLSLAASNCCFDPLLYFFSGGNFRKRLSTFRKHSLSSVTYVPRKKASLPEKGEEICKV
As to the kind of experiment: ERK activation in CysLT1R CHO transfectants. Type of test: cell-based. How it is done: (§1) FIG. 1. Activation by recombinant human P2Y12 receptors in response to cys-LTs. The human P2Y12 receptor cDNA was cloned in forward and reverse orientation into the expression vector pEF1/His B and transfected into CHO cells using Fugene HD reagent. Stably-expressing clones were selected using G418 (1000 μg/ml), and expression of the construct was confirmed by cytofluorographic detection of the HIS tag. 1A. […] 1B. SDS-PAGE immunoblots showing phosphorylation of ERK2 by CHO cells stably expressing human P2Y12 receptors in reverse (negative control) or forward orientations. […] The blots were stripped and re-probed with an antibody (Ab) recognizing total ERK1 and ERK2. […] 1C. Effect of the selective P2Y12 receptor antagonist 2-MesAMP (MeS) on ligand-induced ERK phosphorylation. P2Y12 receptor expressing CHO cells were stimulated with the same doses of agonists used in 1A, in the absence or presence of 2-MesAMP (100 μM). 1D. Comparison of P2Y12 receptor-mediated responses to cys-LTs with those of recombinant human CysLT1R and CysLT2R expressed in CHO cells, and the effect of the CysLT1R antagonist MK571 (1 μM).
(§2) A P2Y12 receptor cDNA was amplified by reverse transcriptase polymerase chain reaction (RT-PCR) from RNA extracted from primary hMCs and cloned into a mammalian expression vector. Expression was confirmed by detection of a histidine (HIS) tag by flow cytometry. […]

The target in test [2] is T2, human CysLT2R (Homo sapiens, UniProt Q9NS75).
T2 construct: expressed in transfected cells
T2 sequence (Q9NS75 1-346): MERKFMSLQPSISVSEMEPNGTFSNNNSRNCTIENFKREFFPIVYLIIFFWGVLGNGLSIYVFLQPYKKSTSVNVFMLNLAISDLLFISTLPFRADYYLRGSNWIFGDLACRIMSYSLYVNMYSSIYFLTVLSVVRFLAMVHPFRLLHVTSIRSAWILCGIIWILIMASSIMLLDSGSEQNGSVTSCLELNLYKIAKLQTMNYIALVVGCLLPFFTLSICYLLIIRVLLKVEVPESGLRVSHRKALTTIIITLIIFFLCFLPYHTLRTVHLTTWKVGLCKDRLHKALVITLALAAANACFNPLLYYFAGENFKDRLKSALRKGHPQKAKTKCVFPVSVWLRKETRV
As to the kind of experiment: ERK activation in CysLT2R CHO transfectants. Type of test: cell-based. How it is done: as §1, §2

Test [3] addresses human P2Y12 (Homo sapiens, UniProt Q9H244). As to the kind of experiment: ERK activation (phosphorylation immunoblot) in P2Y12-expressing CHO cells. Type of test: cell-based. Set-up: polyhistidine (HIS) tag (C); expressed in transfected cells. Conditions: 2-MesAMP 100 μM, MK571 1 μM. How it is done: FIG. 1. Activation by recombinant human P2Y12 receptors in response to cys-LTs. The human P2Y12 receptor cDNA was cloned in forward and reverse orientation into the expression vector pEF1/His B and transfected into CHO cells using Fugene HD reagent. Stably-expressing clones were selected using G418 (1000 μg/ml), and expression of the construct was confirmed by cytofluorographic detection of the HIS tag. 1A. […] Results in second experiment were identical. 1B. SDS-PAGE immunoblots showing phosphorylation of ERK2 by CHO cells stably expressing human P2Y12 receptors in reverse (negative control) or forward orientations. […] The blots were stripped and re-probed with an antibody (Ab) recognizing total ERK1 and ERK2. […] 1C. Effect of the selective P2Y12 receptor antagonist 2-MesAMP (MeS) on ligand-induced ERK phosphorylation. P2Y12 receptor expressing CHO cells were stimulated with the same doses of agonists used in 1A, in the absence or presence of 2-MesAMP (100 μM). 1D. Comparison of P2Y12 receptor-mediated responses to cys-LTs with those of recombinant human CysLT1R and CysLT2R expressed in CHO cells, and the effect of the CysLT1R antagonist MK571 (1 μM). Data in 1B-1D are from individual experiments that were repeated at least 3 times with similar results.
FIG. 8. […] Cells were stably transfected with the human P2Y12 construct and stimulated for 15 minutes with the indicated ligand concentrations. […] Results in a second experiment were similar.
A P2Y12 receptor cDNA was amplified by reverse transcriptase polymerase chain reaction (RT-PCR) from RNA extracted from primary hMCs and cloned into a mammalian expression vector. Expression was confirmed by detection of a histidine (HIS) tag by flow cytometry. Another cohort of CHO cells were stably transfected with a P2Y12 receptor construct in reverse orientation as a negative control. […] The cys-LT-induced ERK activation blocked by pre-treatment of the cells with pertussis toxin (PTX), was attenuated by treatment with the P2Y12 receptor-selective antagonist 2-methylthioadenosine monophosphate (2-MesAMP) (FIG. 1C), and was resistant to MK571, an inhibitor that blocks CysLT1R and some P2Y receptors (Mamedova, L., et al. 2005. Biochem. Pharmacol. 71:115-125). […] These responses were resistant to PTX and 2-MesAMP, and susceptible to MK571 in the case of the CysLT1R transfectants.
A human P2Y12 receptor cDNA was amplified by 30 cycles of PCR from reverse-transcribed total RNA extracted from primary cord blood hMCs. The primer sequences were 5′-[…] (SEQ ID NO: 1) and 3′-[…] (SEQ ID NO: 2). The fragment was cloned into a TA vector (INVITROGEN™). After verifying the nucleotide sequence, the fragment was subcloned into the multiple cloning site of the expression vector pEF1/His B, encoding a C-terminal polyhistidine (HIS) tag. […]

Test [4] concerns LAD2 cells. As to the kind of experiment: MIP-1β generation by LAD2 cells (ELISA). Type of test: cell-based, human. The following applies: apyrase 10 μM, LTE4 500 nM, 6 h. How it is done:
FIG. 2. Requirement for P2Y12 receptors in LTE4-mediated LAD2 cell activation. 2A. Calcium flux of LAD2 cells stimulated with the indicated agonists (500 nM) in the presence or absence of the P2Y12 receptor-selective antagonist 2-MeSAMP (100 μM). […] 2B. […] Cells sensitized overnight with IgE and challenged with anti-IgE were used as the positive control. 2C. […] Results in 2B and 2C are mean±SEM from three independent experiments each. 2D. Effect of shRNA-mediated knockdown of P2Y12 receptor mRNA expression by LAD2 cells.
(§3) FIG. 9. Effect of apyrase treatment on LT-mediated activation of LAD2 cells. 9A. […] Concentrations of MIP-1β were measured by ELISA. 9B. […] Lysates were resolved by SDS-PAGE and probed with the indicated antibodies against phospho- and total ERK. Results in 9A are the mean±½ range from two experiments, while 9B is representative of two experiments.
(§4) Pre-treatment of the LAD2 cells with 2-MesAMP blocked the LTE4-mediated increment in MIP-1β production by >50% (FIG. 2B). […] To exclude potential off-target effects of the inhibitors, samples of LAD2 cells were transfected with lentiviruses encoding a P2Y12 sequence-specific shRNA, a CysLT1R-specific shRNA, or an empty vector control before stimulation. […] LTE4- and LTD4-dependent production of PGD2 were abrogated by the knockdowns of P2Y12 and CysLT1R, respectively (FIG. 2C, bottom). Neither GPCR knockdown altered MIP-1β generation or PGD2 production in response to IgE-anti-IgE (FIG. 2C). LTE4-mediated MIP-1β generation (FIG. 9A) and ERK activation (FIG. 9B) were not altered by treatment of LAD2 cells with apyrase to degrade extracellular ADP.
The concentration of MIP-1β was measured by an ELISA (ENDOGEN®). PGD2 was quantitated by a PGD2-methoxylamine hydrochloride (PGD2-MOX) assay.

Test [5] concerns LAD2 cells. As to the kind of experiment: ERK activation in LAD2 cells with apyrase. Type of test: cell-based, human. Conditions: LTE4 500 nM, 15 minutes. How it is done:
as §3, §4
After stimulation with the respective agonists, LAD2 cells and hMCs (0.5×10^6) were lysed with lysis buffer (BD Bioscience) supplemented with protease inhibitor cocktail (Roche) and sodium vanadate (1 mM). Lysates were subjected to 4-12% SDS-PAGE and transferred to PVDF membranes. […]

human P2Y12, sequence (Q9H244 whole entry): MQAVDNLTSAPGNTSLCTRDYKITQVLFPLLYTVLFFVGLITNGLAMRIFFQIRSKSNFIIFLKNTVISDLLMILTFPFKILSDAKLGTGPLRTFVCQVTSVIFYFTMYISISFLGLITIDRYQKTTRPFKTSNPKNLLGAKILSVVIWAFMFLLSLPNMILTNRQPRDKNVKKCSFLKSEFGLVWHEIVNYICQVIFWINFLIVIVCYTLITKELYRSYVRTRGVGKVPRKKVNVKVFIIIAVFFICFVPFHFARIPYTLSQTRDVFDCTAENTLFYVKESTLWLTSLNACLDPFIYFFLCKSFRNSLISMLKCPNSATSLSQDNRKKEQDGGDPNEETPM

As for pertussis toxin, the “effect on cys-LT-induced ERK activation” value in test [1] is on record as “resistant”; in test [2], “resistant”; in test [3] it was “blocked”.
With apyrase, the “effect on LTE4-mediated MIP-1β generation” value in test [4] is “not altered”. Moreover, the “effect on LTE4-mediated ERK activation” value in test [5] is “not altered”.
